Laboratory results from the supplement of paper PMC5998384.

Columns and labels:
HeLa Kyoto [1] = assay: solubility in G1/S (NP-40 vs SDS abundance) (log2 ratio); higher = more soluble; settings: cell cycle stage: G1/S
HeLa Kyoto [2] = assay: solubility change mitosis vs G1/S (difference of NP-40 vs SDS log2 ratios) (log2 ratio difference); higher = more soluble in mitosis
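Wherever solubility change mitosis vs G1/S (difference of NP-40 vs SDS log2 ratios) is given: synchronized HeLa Kyoto cells (double thymidine block for G1/S, nocodazole release for mitosis), protein amounts in NP-40 versus SDS lysates quantified by mass spectrometry, three biological replicates.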
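Wherever solubility in G1/S (NP-40 vs SDS abundance) is given: HeLa Kyoto cells arrested at G1/S by double thymidine block, proteins quantified by TMT10plex mass spectrometry in mild NP-40 versus SDS extracts, three biological replicates.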

PCBD2, sequence (chain, as listed by the source): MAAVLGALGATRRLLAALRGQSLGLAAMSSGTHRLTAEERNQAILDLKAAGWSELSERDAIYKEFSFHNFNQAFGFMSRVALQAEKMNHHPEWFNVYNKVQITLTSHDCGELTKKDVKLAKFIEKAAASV

MAEASFGSSSPVGSLSSEDHDFDPTAEMLVHDYDDERTLEEEEMMDEGKNFSSEIEDLEKEGTMPLEDLLAFYGYEPTIPAVANSSANSSPSELADELPDMTLDKEEIAKDLLSGDDEETQSSADDLTPSVTSHETSDFFPRPLRSNTACDGDKESEVEDVETDSGNSPEDLRKEIMIGLQYQAEIPPYLGEYDGNEKVYENEDQLLWCPDVVLESKVKEYLVETSLRTGSEKIMDRISAGTHTRDNEQALYELLKCNHNIKEAIERYCCNGKASQEGMTAWTEEECRSFEHALMLFGKDFHLIQKNKVRTRTVAECVAFYYMWKKSERYDYFAQQTRFGKKRYNHHPGVTDYMDRLVDETEALGGTVNASALTSNRPEPIPDQQLNILNSFTASDLTALTNSVATVCDPTDVNCLDDSFPPLGNTPRGQVNHVPVVTEELLTLPSNGESDCFNLFETGFYHSELNPMNMCSEESERPAKRLKMGIAVPESFMNEVSVNNLGVDFENHTHHITSAKMAVSVADFGSLSANETNGFISAHALHQHAALHSE [MIER3]
solubility in G1/S (log2) (HeLa Kyoto [1]): 0.163
solubility change mitosis (log2) (HeLa Kyoto [2]): -0.33

MEPIYPFARPQMNTRFPSSRMVPFHFPPSKCALWNPTPTGDFIYLHLSYYRNPKLVVTEKTIRLAYRHAKQNKKNSSCFLLGSLTADEDEEGVTLTVDRFDPGREVPECLEITPTASLPGDFLIPCKVHTQELCSREMIVHSVDDFSSALKALQCHICSKDSLDCGKLLSLRVHITSRESLDSVEFDLHWAAVTLANNFKCTPVKPIPIIPTALARNLSSNLNISQVQGTYKYGYLTMDETRKLLLLLESDPKVYSLPLVGIWLSGITHIYSPQVWACCLRYIFNSSVQERVFSESGNFIIVLYSMTHKEPEFYECFPCDGKIPDFRFQLLTSKETLHLFKNVEPPDKNPIRCELSAESQNAETEFFSKASKNFSIKRSSQKLSSGKMPIHDHDSGVEDEDFSPRPIPSPHPVSQKISKIQPSVPELSLVLDGNFIESNPLPTPLEMVNNENPPLINHLEHLKPLQPQLYDEKHSPEVEAGEPSLRGIPNQLNQDKPALLRHCKVRQPPAYKKGNPHTRNSIKPSSHNGPSHDIFEKLQTVSAGNVQNEEYPIRPSTLNSRQSSLAPQSQPHDFVFSPHNSGRPMELQIPTPPLPSYCSTNVCRCCQHHSHIQYSPLNSWQGANTVGSIQDVQSEALQKHSLFHPSGCPALYCNAFCSSSSPIALRPQGDMGSCSPHSNIEPSPVARPPSHMDLCNPQPCTVCMHTPKTESDNGMMGLSPDAYRFLTEQDRQLRLLQAQIQRLLEAQSLMPCSPKTTAVEDTVQAGRQMELVSVEAQSSPGLHMRKGVSIAVSTGASLFWNAAGEDQEPDSQMKQDDTKISSEDMNFSVDINNEVTSLPGSASSLKAVDIPSFEESNIAVEEEFNQPLSVSNSSLVVRKEPDVPVFFPSGQLAESVSMCLQTGPTGGASNNSETSEEPKIEHVMQPLLHQPSDNQKIYQDLLGQVNHLLNSSSKETEQPSTKAVIISHECTRTQNVYHTKKKTHHSRLVDKDCVLNATLKQLRSLGVKIDSPTKVKKNAHNVDHASVLACISPEAVISGLNCMSFANVGMSGLSPNGVDLSMEANAIALKYLNENQLSQLSVTRSNQNNCDPFSLLHINTDRSTVGLSLISPNNMSFATKKYMKRYGLLQSSDNSEDEEEPPDNADSKSEYLLNQNLRSIPEQLGGQKEPSKNDHEIINCSNCESVGTNADTPVLRNITNEVLQTKAKQQLTEKPAFLVKNLKPSPAVNLRTGKAEFTQHPEKENEGDITIFPESLQPSETLKQMNSMNSVGTFLDVKRLRQLPKLF [STIL]
solubility in G1/S (log2) (HeLa Kyoto [1]): -0.362
solubility change mitosis (log2) (HeLa Kyoto [2]): 0.239

PCBD2
solubility in G1/S (log2) (HeLa Kyoto [1]): -0.0388
solubility change mitosis (log2) (HeLa Kyoto [2]): 0.0587

MDRGQPSLEPAAAAPRASGRCVIAPVRAVLRLRRRVCVLRKRRLLQPGGGPDVGTGAPRPGCSPRAPRADLDQPKFFTFDSPAELPSRTPRKKRRRSRLVLYPETSRKYRPRVEHRSRAQRCLLLLVAIVGFQVLNAIENLDDNAQRYDLDGLEKALQRAVFGQPAAVSRIVALMRDYLATHVHSRPLLLALHGPSGVGKSHVGRLLARHFRSVLEDSALVLQYHARHHCPEARAAQDCREELARRVADVVARAEAEEKTPLLVLDDVELMPRPLLDELHGFLQPQRSHHFHNAIYVLLSGAGGAEVTRFVLQNASRALPLRPDGFRSAEAAAAQAEEDLRASLLAVLSREHPLWQAAAIVPFLLLDKRDVVSCFRDEMAGEGFFPDQARAENLAAQLSFYRVAGREFAVTGCKQVVATVNLL [TOR4A]
solubility in G1/S (log2) (HeLa Kyoto [1]): 0.137
solubility change mitosis (log2) (HeLa Kyoto [2]): 0.0625

MGAVTDDEVIRKRLLIDGDGAGDDRRINLLVKSFIKWCNSGSQEEGYSQYQRMLSTLSQCEFSMGKTLLVYDMNLREMENYEKIYKEIECSIAGAHEKIAECKKQILQAKRIRKNRQEYDALAKVIQHHPDRHETLKELEALGKELEHLSHIKESVEDKLELRRKQFHVLLSTIHELQQTLENDEKLSEVEEAQEASMETDPKP [THOC7]
solubility in G1/S (log2) (HeLa Kyoto [1]): -0.022
solubility change mitosis (log2) (HeLa Kyoto [2]): 0.387

MAGALVRKAADYVRSKDFRDYLMSTHFWGPVANWGLPIAAINDMKKSPEIISGRMTFALCCYSLTFMRFAYKVQPRNWLLFACHATNEVAQLIQGGRLIKHEMTKTASA [MPC1]
solubility in G1/S (log2) (HeLa Kyoto [1]): -0.461
solubility change mitosis (log2) (HeLa Kyoto [2]): -0.165

MVLLHVKRGDESQFLLQAPGSTELEELTVQVARVYNGRLKVQRLCSEMEELAEHGIFLPPNMQGLTDDQIEELKLKDEWGEKCVPSGGAVFKKDDIGRRNGQAPNEKMKQVLKKTIEEAKAIISKKQVEAGVCVTMEMVKDALDQLRGAVMIVYPMGLPPYDPIRMEFENKEDLSGTQAGLNVIKEAEAQLWWAAKELRRTKKLSDYVGKNEKTKIIAKIQQRGQGAPAREPIISSEEQKQLMLYYHRRQEELKRLEENDDDAYLNSPWADNTALKRHFHGVKDIKWRPR [C21ORF59]
solubility in G1/S (log2) (HeLa Kyoto [1]): 0.335
solubility change mitosis (log2) (HeLa Kyoto [2]): 0.0264

WWP1
solubility in G1/S (log2) (HeLa Kyoto [1]): -0.159
solubility change mitosis (log2) (HeLa Kyoto [2]): 0.0121

MGKVLSKIFGNKEMRILMLGLDAAGKTTILYKLKLGQSVTTIPTVGFNVETVTYKNVKFNVWDVGGQDKIRPLWRHYYTGTQGLIFVVDCADRDRIDEARQELHRIINDREMRDAIILIFANKQDLPDAMKPHEIQEKLGLTRIRDRNWYVQPSCATSGDGLYEGLTWLTSNYKS [ARF6]
solubility in G1/S (log2) (HeLa Kyoto [1]): 0.0719
solubility change mitosis (log2) (HeLa Kyoto [2]): 0.0647

MAENLKGCSVCCKSSWNQLQDLCRLAKLSCPALGISKRNLYDFEVEYLCDYKKIREQEYYLVKWRGYPDSESTWEPRQNLKCVRILKQFHKDLERELLRRHHRSKTPRHLDPSLANYLVQKAKQRRALRRWEQELNAKRSHLGRITVENEVDLDGPPRAFVYINEYRVGEGITLNQVAVGCECQDCLWAPTGGCCPGASLHKFAYNDQGQVRLRAGLPIYECNSRCRCGYDCPNRVVQKGIRYDLCIFRTDDGRGWGVRTLEKIRKNSFVMEYVGEIITSEEAERRGQIYDRQGATYLFDLDYVEDVYTVDAAYYGNISHFVNHSCDPNLQVYNVFIDNLDERLPRIAFFATRTIRAGEELTFDYNMQVDPVDMESTRMDSNFGLAGLPGSPKKRVRIECKCGTESCRKYLF [SUV39H1]
solubility in G1/S (log2) (HeLa Kyoto [1]): -0.773
solubility change mitosis (log2) (HeLa Kyoto [2]): -0.415

MASTRSIELEHFEERDKRPRPGSRRGAPSSSGGSSSSGPKGNGLIPSPAHSAHCSFYRTRTLQALSSEKKAKKARFYRNGDRYFKGLVFAISSDRFRSFDALLIELTRSLSDNVNLPQGVRTIYTIDGSRKVTSLDELLEGESYVCASNEPFRKVDYTKNINPNWSVNIKGGTSRALAAASSVKSEVKESKDFIKPKLVTVIRSGVKPRKAVRILLNKKTAHSFEQVLTDITEAIKLDSGVVKRLCTLDGKQVTCLQDFFGDDDVFIACGPEKFRYAQDDFVLDHSECRVLKSSYSRSSAVKYSGSKSPGPSRRSKSPASVNGTPSSQLSTPKSTKSSSSSPTSPGSFRGLKQISAHGRSSSNVNGGPELDRCISPEGVNGNRCSESSTLLEKYKIGKVIGDGNFAVVKECIDRSTGKEFALKIIDKAKCCGKEHLIENEVSILRRVKHPNIIMLVEEMETATELFLVMELVKGGDLFDAITSSTKYTERDGSAMVYNLANALRYLHGLSIVHRDIKPENLLVCEYPDGTKSLKLGDFGLATVVEGPLYTVCGTPTYVAPEIIAETGYGLKVDIWAAGVITYILLCGFPPFRSENNLQEDLFDQILAGKLEFPAPYWDNITDSAKELISQMLQVNVEARCTAGQILSHPWVSDDASQENNMQAEVTGKLKQHFNNALPKQNSTTTGVSVIMNTALDKEGQIFCSKHCQDSGRPGMEPISPVPPSVEEIPVPGEAVPAPTPPESPTPHPPPAAPGGERAGTWRRHRD [DCLK2]
solubility in G1/S (log2) (HeLa Kyoto [1]): -0.0668
solubility change mitosis (log2) (HeLa Kyoto [2]): -0.0347

MRSRVLWGAARWLWPRRAVGPARRPLSSGSPPLEELFTRGGPLRTFLERQAGSEAHLKVRRPELLAVIKLLNEKERELRETEHLLHDENEDLRKLAENEITLCQKEITQLKHQIILLLVPSEETDENDLILEVTAGVGGQEAMLFTSEIFDMYQQYAAFKRWHFETLEYFPSELGGLRHASASIGGSEAYRHMKFEGGVHRVQRVPKTEKQGRVHTSTMTVAILPQPTEINLVINPKDLRIDTKRASGAGGQHVNTTDSAVRIVHLPTGVVSECQQERSQLKNKELAMTKLRAKLYSMHLEEEINKRQNARKIQIGSKGRSEKIRTYNFPQNRVTDHRINKTLHDLETFMQGDYLLDELVQSLKEYADYESLVEIISQKV [MTRF1L]
solubility in G1/S (log2) (HeLa Kyoto [1]): -0.0262
solubility change mitosis (log2) (HeLa Kyoto [2]): 0.288

MGETKIIYHLDGQETPYLVKLPLPAERVTLADFKGVLQRPSYKFFFKSMDDDFGVVKEEISDDNAKLPCFNGRVVSWLVSAEGSHPDPAPFCADNPSELPPPMERTGGIGDSRPPSFHPHAGGGSQENLDNDTETDSLVSAQRERPRRRDGPEHATRLNGTAKGERRREPGGYDSSSTLMSSELETTSFFDSDEDDSTSRFSSSTEQSSASRLMRRHKRRRRKQKVSRIERSSSFSSITDSTMSLNIITVTLNMEKYNFLGISIVGQSNERGDGGIYIGSIMKGGAVAADGRIEPGDMLLQVNEINFENMSNDDAVRVLREIVHKPGPITLTVAKCWDPSPRGCFTLPRSEPIRPIDPAAWVSHTAAMTGTFPAYGMSPSLSTITSTSSSITSSIPDTERLDDFHLSIHSDMAAIVKAMASPESGLEVRDRMWLKITIPNAFIGSDVVDWLYHNVEGFTDRREARKYASNLLKAGFIRHTVNKITFSEQCYYIFGDLCGNMANLSLHDHDGSSGASDQDTLAPLPHPGAAPWPMAFPYQYPPPPHPYNPHPGFPELGYSYGGGSASSQHSEGSRSSGSNRSGSDRRKEKDPKAGDSKSGGSGSESDHTTRSSLRGPRERAPSERSGPAASEHSHRSHHSLASSLRSHHTHPSYGPPGVPPLYGPPMLMMPPPPAAMGPPGAPPGRDLASVPPELTASRQSFRMAMGNPSEFFVDVM [DVL3]
solubility in G1/S (log2) (HeLa Kyoto [1]): -0.0796
solubility change mitosis (log2) (HeLa Kyoto [2]): -0.17
